# Experiment: soluble on expression in E. coli; label from the status in PepcDB or PDB records
row,Sequence,soluble on expression in E. coli
1,MIGAVNSVEAVITSIQGLSGSPEDLSALHDLLRGAQDSLRAEPGVNFSTLDQLDASKHSLGYLYFLEVLTCGPVSKEKAAYEIPIIARFINSCDAGQIRLASYKFVSLCKILKDHVIALGDPLRGVGPLLNAVQKLQVSSKRLTALHPDVLQLCLQAKSYKSGFSILSDDIVEIDQPRDFFLYSYYGGMICIGLKRFQKALELLYNVVTAPMHQVNAIALEAYKKYILVSLIHNGQFTNTLPKCASTAAQRSFKNYTGPYIELGNCYNDGKIGELEALVVARNAEFEEDKNLGLVKQAVSSLYKRNILRLTQKYLTLSLQDIANMVQLGNAKEAEMHVLQMIQDGQIHALINQKDGMVRFLEDPEQYKSSEMIEIMDSVIQRTIGLSKNLLAMDESLSCDPLYLGKVGRERQRYDFGDDFDTVPQKFSM,soluble
2,MAHHHHHHMPLPPLEEAPRSMTRRNYLVERNRLRVSAYAPTRRELEEEDIRMAQTREERRRNMLNSWKSQSMYNPDLTRPLPGGGPRSKRMKEAATLKNPNYYKIVKEEEAQLKAERTAMYRADVLQQLKDREEYLRKWREDEKAYVSSLVESNKEQARKLEEREREEARAEKEYMNRMRESNLRELEQKRMKEREREEYELSLIRTVQAREKEKAETEERRARDMKQMMRRENEEYHRSIKKKQKEDKAREEAELKAILEYNATLAERERQEQKQRRDQYKAEFEETIEKQKEFFRTHNYDEPPESIRERNEKAAAALALIKKEERLRLADRRREYRQELMQQIREKQEWQLTHIDGV,not soluble
3,MNYSLEDLPNSGKNPRVYMDIVLNNEIIGRLQIKLFRDAFPAGVENFVQLTNGKTYRVNSNGTGKYKYNRHINRTYEGCKFHNVLHNNYIVSGDIYNSNGSSAGTVYCDEPIPPVFGDYFYPHESKGLLSLVPYTDESGNRYYDSTFMITLDDIRPSNVLDELDRDQVVIGQVYGGLDVLDKINSMIKPYAGRKYPTFSIGKCGAYLDSSQAQRKRPVNVNGTKRFLNKPTRVN,soluble
4,MGGSHHHHHHGMASLGMIKNSLFGSVETWPWQVLSKGDKEEVAYEERACEGGKFATVEVTDKPVDEALREAMPKVAKYAGGTNDKGIGMGMTVPISFAVFPNEDGSLQKKLKVWFRIPNQFQSDPPAPSDKSVKIEEREGITVYSMQFGGYAKEADYVAQATRLRAALEGTATYRGDIYFCTGYDPPMKPYGRRNEIWLLKT,not soluble
5,MDLDLIQDLPILNFPPAIKIRANTNRDDDGGGCTTPTSSDHKIPPTTATTPPPPPQKPRPPSTPSSLGIRSCKRKLMTSLSKYEIIVNKDEIERFFSSVYNQTMASSTTTAITVAKRRRSFRSCSRR,not soluble
6,MTEVNAFADTPWRAGVIQDFARSELFDRTFEEGMQLVEETAAYLDGAGRHDSKVLSRNAALGYATESMRLTTRLMQVASWLLVQRAVREGEMPPEAACAEAYRLAEEAPADGPAVEELPFGLMNLLQRSERLYERVRHLDRRMYVESPNEEAPRPVQNQLDRLTAAFGG,soluble
7,MDKYRLLLLGGGRGLFDIDEDFMHWIDEFIEEHSNSIEITIVTGKNKKLYDNLTHKKPLKNIKVLGFVNDMYNLIRECDLMLTKPGGATIFEAIQSQTPVLVKMPKVGQEIENAKFIIDKGLGMIYSDDLDLKNIFYKLVSNEFDSIINFMKKNLKEFKTVIHPEKIADYISELIDNHLEHHHHHH,not soluble
8,MGSDKIHHHHHHMNIAEIEVTHKVKEKEWKEFLSRSEYATVYHTPEWKKTLEESFGYKPYYLFVKDESDLIVGMLPLFYVKSKLTGNRLSSLPFSHISGPVGDKATKNFLISEAINLYKNLGASYLEIRDRVEDNRFLSKNMFSTYILELNPNIEEVWKQLHKGSVRRAIKKSEKSGVVVDTAKDIESLKEFYDLNCVGKRKIGVPCHPWKFFKNLFRFMNDYISLYVAKYQNNIIGGGIMIYYKDTVIYGYGAAHPHYLKLYPYNAFLWKSIKDACLSRYKYFDLGRAHYNVERGLMDFKRRWGTIEKKLYYSYYSKNKDLKILDMSGLKYRLGTKVIRKMPMPIYKKFSDRIFGSLG,not soluble
9,MGSDKIHHHHHHMLEGKVAVVTGGGQGIGAAIAQLFAENGMKVVIAEIDEEAGVEREEMLRERGLDVTFVKTDVADENSVKNMVRKTVEIYGGVDVLVNNAAVMSVKSIFERPLEEWERVIRVNLTGPYICSRYCAEEMIKRGGGVIINIASTRAFQSEPDTEPYSASKGGLVALTHSLAVSLSRYHIRVVSISPGWIETSEWKKKSLRKKPDLRPIDHEQHPAGRVGNPLDIAHLCVFLADDEKAGFITGTNFIVDGGMTVKMIYEE,not soluble
10,MAHVAFNLLHLPAKTLRNVFQLMSHSELFIFSFASICAKRLVKSMNFEMLELDLVYSRPCKLKISFGEHEEFIIEFDEFGTLSKQEPSDAFVFLIAYKLDIRDCINHVLEVYKISKLHTLKVIGAINNPQNLLKIIGKLDLKVLWIFFNFSENSTTISVYREILNHLGARCDVRSLRRGFYDKEPQKSFFLLRLSLSYALSQEPHSRPTATLAARRLKRRQDTQPLDATTSVLMLRSCRTVGRGTSLPTHPPFSFVIAPHYYSCTCSDIQGEPDKLQ,not soluble
11,MGSDKIHHHHHHMNADDIRAMIQPAQVHRDVYISDAVYRLEMRHLFTNAWIFVGHDSQTPNKGDYITTQVGDQPVIMVRHTDGEVKVLYNRCPHKGTKIAIDRAGNTGKFFRCPYHAWSFKTDGCLLAIPLKKGYEGTGLSESQNGKGMQAVGAVYNYRGFVFARLAEDGIGFDEFFGGSLSSIDNMVDRAPEGRVEISGPPLRYMHKCNWKMLVENQTDTCHPMVAHESSAGTAVKIYEQMGNPEPRPPAMQIIAPFMSPYEFFEDMGIRTWPNGHGHTGVNMSIHSNYDAIPGYFEAMIESHGEERAKAILDESRHNTVYFPNVMVKAPLTQLRNFIPLGADRTLAESYVYRLVGAPEQLTAMSAMYNRMINAPTSIVGHDDLEMYERAQEGLHAEGMQWVDIRRLHTGPENFETEAVENGTTERQMRNQFHAWAKFMTMSMEDAPGVAAQ,not soluble
12,MKLTVKRSVFLQELQTVQRAISSKTTIPILTGVKIVLSEDGLSLTGSNADISIESFLSKDDEKAQMTIERTGSIVLQSRFFGEIIRKLPEDMFTMEVLDNNQVAITSGKADFTVNGLDADNYPHLPVIDTQNQMKLPVHLLTKIISETGFAVSMHESRPILTGVHFILENQKLLAVATDSHRLSQRVIPTEQAVEDFNIVIPGKSLTELSRSLTNEEEMVEISIMENQVLFKTETMYFYSRLLEGNYPDTNRLIPTSHNTQIEFYVPELLSAIERASLLSHEGRNNIVRLSISPDSVVLYGNSPEIGKVEEALNYENVSGEALDISFNPDYMKDALRAFGDMNITVKFLSPIRPFTLEPTETELDFIQLITPVRTN,not soluble
13,MGSDKIHHHHHHMDFVAVAVHTEYRCNQGWETRAECHWFVSTIRAIMTATQSISLVGGEGDELLMQRYASGDIQAFDTLYRRHKGGLYRYFLRQIGDSQLAEDLYQETWGRVIKAAPAYEISAKFTTWLYRIAHNLLIDHVRAVKPLNEADTLDEEGMALTDSMTPVRSHEHDLKVQALKHCVGLLPQVQKEAFLLSSEMGFTALMISEIASVSLEATKSRIRYAYQSLKTCVAKRLGEDSDER,not soluble
14,MSLNINDALTSILASKKYRALCPDTVRRILTEEWGRHKSPKQTVEAARTRLHGICGAYVTPESLKAAAAALSAGDVKKALSLHASTKERLAELDTLYDFIFSAETPRRVLDIACGLNPLALYERGIASVWGCDIHQGLGDVITPFAREKDWDFTFALQDVLCAPPAEAGDLALIFKLLPLLEREQAGSAMALLQSLNTPRMAVSFPTRSLGGRGKGMEANYAAWFEGGLPAEFEIEDKKTIGTELIYLIKKNGEGHHHHHH,soluble
15,MHPIETPDKTFHDGDGVSELGTILPAWWLNQVQSELLAVLTAAGIQPDKSQPNQLLAALNRLAVVITGDQTVNGQKTFTAQTQFQSGIHLSANQTNWNGGHKAYIGADADNAHIVFGDDTLRLHGANNRISYNNHDIFHKANKPRFAEDIQGKPNTLSGYGIGNFKVETFRGDLNTLKTDGIYSLPTAVGSSNLPVENTACHIQVIAGTKHGWCRQLGYPAYTSDVYERHQTSSANDNWSAWKKLNSDGIPVGAIVSFPKAVQNPAGYLKANGTTFAQNTFPDLYRALGNSNRLPDLSRTDIGITAWFPSDQIPTGWLAFDDIRTRVTETAYPELYRLLTGKYGSIQNVPQAEDRFIRNAGNSLAVGTKQEDEIKRHVHKVFSHWTNHTDAAALGYEDRNERQRSALVSTWTDENLNDNGFLTPRSDSKMATGGDENRPKALVLKLCIKAADTLGEAVFWIKSHGETINAGALDAGTLAQGLQDKADRDHTHTAAQIQGLDEKISTAVAAQFTRQTIGGVDIVRFPDGTMIQTGSYRFTRSGGPIENEVVFPVAFADGNVKCFVSERHSERVTGDRRQHNWLFIRAKNHAAAIITNWYEGSCDWMAIGKAASGNAASSPIGPEIPETNEEPQRESGRTSTGPRNRRRRDGLLEALQD,not soluble
16,MRGEFYQQLTNDLETARAEGLFKEERIITSAQQADITVADGSHVINFCANNYLGLANHPDLIAAAKAGMDSHGFGMASVRFICGTQDSHKELEQKLAAFLGMEDAILYSSCFDANGGLFETLLGAEDAIISDALNHASIIDGVRLCKAKRYRYANNDMQELEARLKEAREAGARHVLIATDGVFSMDGVIANLKGVCDLADKYDALVMVDDSHAVGFVGENGRGSHEYCDVMGRVDIITGTLGKALGGASGGYTAARKEVVEWLRQRSRPYLFSNSLAPAIVAASIKVLEMVEAGSELRDRLWANARQFREQMSAAGFTLAGADHAIIPVMLGDAVVAQKFARELQKEGIYVTGFFYPVVPKGQARIRTQMSAAHTPEQITRAVEAFTRIGKQLGVIA,soluble
17,MSLRPVPSGQDPIKVVHYSDIHVDQLYTEGSNAKCNKPICCRQVKIIRHTHKSWTDFSRPFTENDEPGKTDSPAGPFGEHTCDSPVSLEHSMYQAIKEIVPDASFTIFTGDVVDHSIWNTTWDYNKHQIIESYENMDKHLGIVYGTAGNHESHPTNAYQPSSIGGASSWIYDLLAGAWSRWIGHEAASKAAQIGAYSTKFPHGNLRVISLNTNLYYRGNFWLFQRKMIRDPSKQFDWLIEELHAAEKAGERVYIIGHMPPGDRNAFHDQSNYLNQIVNRYSSTIAAMFFGHTHRDHFQITYSEAPKKSFSNALLTSYVGPSLTPTSGMPSFRVYDVDPITFAVLDATTYSADMNSPTYQTQGPVWKKYYSAKETYGEGHHHHHH,not soluble
18,LKDFSFDLNVNLAKNVSNVEKLADGVDYIYFNGDSNFPINVGARPGHKLGEIYAKTLYKRDEQGNIIINKENGLPMTTTDADERLAKPIGNIQPNLLMSVSPSFTYKGITLSAIFDMKFGGDIISISEMNATGSGMAKRTMNRGESDNFMMIFPGVYEDGTPNTQKISASNYYGAQNAEDFIYDASFIKLKELAIGYTFPKSMLKKTPINSLNVSFVARNLAYLLKHTPGTSPEGGYDTTMFSQAIDFMAVPYTRTFGFSVNLGF,not soluble
19,MAHHHHHHMQLKERLQQWRERGLQGADVDPPVQRPRSFRPSCIVPRLYLGAAKDVQDVRTLRSRLLPDKLLMVVSTCDPSDPPRMELRQIAPTKGTAYTVKRLAVCSWEELEKRVVTSSFCCRLPRNEVMVATAEWLKEVLKTKSLPPVSLEECRDVQKGETDGKVSEVFEEGLYLKLCLPWKDESNFTVRPYFAVATALIHATMDGIQGAVVCYCMAGKSRSATLTCALLLYCCYDNVGRPKDEEECSAYKAVQAVVEFVREVRLCVSPNEGFIEQLRDYASDLLAV,not soluble
20,MRTPIALSLALCLSLFPSFASAEEAAPEGEGANKPVYVDLTPALVGNYGSGPRLQYYKADIALQVADKDAATKVEHHEPLIRNQLIMLFAQQTDQSLGTVEAKESLRQEALKQVQQTLEQEEGKPLVTDLLFNNLIVQP,not soluble
21,GPGSYLMLLGLNLIRLLVCSRIAEFHSEMEKIPFATHGSNLYIRFAVGLERYLMEGSYNKLLTSRKKVPSNEYLPVVEMLEQTVRDEVANCIPESYRQLSIPAAQRILMVDTEAKVREIGAKREWALSADGTHFVFTREDDTLQKEIPFKEMIEQHINFVADLQNIV,not soluble

# Source: the DeepSol protein solubility set
